Laboratory results reported in the supplement of paper PMC9170038.

Test system: MS2 coat protein
Experiment: apparent KD of MS2 coat protein; higher = weaker reporter binding
Conditions: Eterna round: R107
Procedure: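 RNA-MaP round R107: designed RNA switches with theophylline, tryptophan, arginine or FMN aptamers are transcribed on-chip within common flanks. They are titrated with SNAP-549-labelled MS2 coat protein in RNA-MaP buffer (100 mM Tris pH 7.5, 80 mM KCl, 4 mM MgCl2), without ligand or with the indicated ligand. Median apparent KD per design.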

[1] = input ligand: theophylline 20 uM
[2] = input ligand: theophylline 2 mM
[3] = input ligand: tryptophan 2.4 mM

Sequence | apparent KD of MS2 coat protein (input ligand: arginine 13.2 mM) [µM] | apparent KD of MS2 coat protein [1] [µM] | apparent KD of MS2 coat protein [2] [µM] | apparent KD of MS2 coat protein [3] [µM] | apparent KD of MS2 coat protein (input ligand: none) [µM]
AAAACAUGAGGAUCACCCAUGUACAUGGGUCGAGGACCGGUACGGCCGCCACUCGCCGCCCGCCCGCCCGCCACCUCUCCCGCCC | 0.0347 | 0.173 | 0.16 |  | 
AAAACGCAACUCGAUACCAGUACACUGAGUCUUCGCCACGACAUGAGGAUCACCCAUGUGUACCCUUGGCAGCGACAGAGCCACA [theeternabot_exclusion_MS2_Theo_B_42] | 0.0434 | 0.0849 |  | 0.0577 | 
AAAAUCCUACCUGAGGAUCACCCAGGUGAAGGAGCGCCCGAAAGGGCAGGUAGGUCGCACCUGAGGAUCACCCUGGUAACCUAAA [ArgEX 11 #DoubleMS2 #OpenEnded #AlternativeMS2] | 0.0281 | 0.069 | 0.0517 | 0.0386 | 0.048
AAAAUCCUACCUGAGGAUCACCCUGGUGAAGGAGCGCCCGAAAGGGCAGGUAGGUCGCACCUGAGGAUCACCCAGGUAACCUAAA [ArgEX 13 #DoubleMS2 #OpenEnded #AlternativeMS2] | 0.0317 | 0.0407 | 0.0441 | 0.047 | 0.0492
AAAAUCCUACCUGAGGAUCACCCUGGUGAAGGAGCGCCCGAAAGGGCAGGUAGGUCGCACCUGAGGAUCACCCUGGUAAACCUAA [ArgEX 24 #DoubleMS2 #OpenEnded] | 0.0316 | 0.0403 | 0.0449 | 0.0463 | 0.0514
AAACAUUGCUCAGAUACCAGACAUGAGGAUCACCCAUGUACCAAGGUACCCGAAAGGAAUGUCCCUUGGCAGCUGAGCAAUGAAA [MAT - Exclusion Theophlline B - Mod of Eli - D20] | 0.0109 | 0.0119 |  | 0.00951 | 
AAACGCCACGGAAGGAGCGACAUGAGGAUCACCCAUGUAGACGUGGCGGAUGCACCCUCCUGUCAGGUAGGUCGCCGUGCGCCAA [Engebite] | 0.0109 | 0.0155 | 0.0122 | 0.0112 | 0.011
AAACGCUAUGCGGCCGCCACUAAGGUUGGCGUCUAUGUCGUUUAAGACAUGAGGAUCACCCAUGUUAGGACCGGGCAUGUCCGCG [theeternabot_exclusion_MS2_Trp_B_25] | 0.0191 | 0.0229 | 0.0224 |  | 
AAACUGGGUGUAAAAUAAAUAAUCACUGAUACCAGACUAUAGUAUGUCCCUUGGCAGCAGAAACAUGAGGAUCACCCAUGUAAUA [JR_Nu_ExcTheophyA_Sub024] | 0.0223 | 0.023 |  | 0.0252 | 
AAACUGGGUGUAAAAUAAAUAAUCACUGAUACCAGACUAUGAGAUGUCCCUUGGCAGCAGAAACAUGAGGAUCACCCAUGUAAUA [JR_Nu_ExcTheophyA_Sub026] | 0.0196 | 0.0245 |  | 0.0252 | 
AAAGAUACCAGAGAUACCAGCCAAAAUUAAAAUAAAACCUCACAUGAGGAUCACCCAUGUGGCCCUUGGCAGCUCCCUUGGCAGC [#DoubbleAptamer 1] | 0.0131 | 0.0155 |  | 0.0125 | 
AAAGGAAGGUAAAAUAAAACUACAUGUGAAGGAGCGCGCGAAAGCGCAGGUAGGUCGCACAUGAGGAUCACCCAUGUCCUUCCAA [MAT - Exclusion Arginine A - Mod of Eli - D4] | 0.113 | 0.181 | 0.129 | 0.0968 | 0.104
AAAGGUAGCAAUAAAUCUCCUACAUGUGAAGGAGCGCCCGAAAGGGCAGGUAGGUCGCACAUGAGGAUCACCCAUGUGAGCUACC [ArgEX 5 #SwitchBubble] | 0.0189 | 0.0209 | 0.0212 | 0.0153 | 0.0152
AAAGGUCGCAAUAAAUCUCCUACAUGUGAAGGAGCGCCCGAAAGGGCAGGUAGGUCGCACAUGAGGAUCACCCAUGUGAGCGACC [MAT - Exclusion Arginine A - Mod of Eli - D2] | 0.0103 | 0.0146 | 0.013 | 0.0118 | 0.0124
AAAGGUCGGACGGCCGCCACUGGCUAGGUGGGUUCCGGGAUUACAUGAGGAUCACCCAUGUAUACCAGGACCGGGUUCGCCUCGU [Lageonor] | 0.00951 | 0.0122 | 0.00828 | 0.0178 | 0.0119
AAAUAAAACUGACAUACUGACCCAGUGGAAGGAGCGCACGAGGGUGCAGGUAGGUCGCCACAUGAGGAUCACCCAUGUCACGGAA [Esesinonla] | 0.056 | 0.135 | 0.131 | 0.0867 | 0.0919
AAAUAAAUACAUGAGGAUCACCCAUGUGAAGGAGCGCGCGUUAGCGCAGGUAGGUCGCACAUGAAAGGGAAGCGAAAGAAAUAAU [MAT - Exclusion Arginine A - Mod of Eli - D16] | 0.0249 | 0.0286 | 0.0243 | 0.0222 | 0.019
AAAUAAAUACAUGAGGAUCACCCAUGUGAAGGAGCGCGCGUUAGCGCAGGUAGGUCGCACAUGAACUCCAAAGUGCAAAAGCACA [MAT - Exclusion Arginine A - Mod of Eli - D8] | 0.0197 | 0.0251 | 0.0205 | 0.0247 | 0.0228
AAAUAGGUAGGAGAUACCAGAUAGGUUAACAUGAGGAUCACCCAUGUGUAUGCACUUAGUGUCCCUUGGCAGCUCCUGGAUCUGG [#19 Same State - Theophylline B] | 0.0333 | 0.0779 | 0.0632 | 0.0605 | 0.0471
AAAUAUUACGGAAGGAGCGUCUCAUAUAUGAAACAUGAGGAUCACCCAUGUGAUAAUGAACGACAGGUAGGUCGCCGAUAAUUGA [JR_AAArginiB_Sub029] | 0.0161 | 0.0227 | 0.0168 | 0.0151 | 0.016
AACAACAAGGGAAGGAGCGCGAAUUAUAGACAUGAGGAUCACCCAUGUAACAUGGGAUUAACGCAGGUAGGUCGCCCACAAACAA [#08 Exclusion - Arginine B] | 0.0805 | 0.237 | 0.177 | 0.117 | 0.162
AACACAUGAGGAUCACCCAUGUUCUCGUGUCGAGGACCGGUACGGCCGCCACUCGGUUCUCGCGAGGAUGGUCAAAGACUAUCCA [Omei Trp A SS B v7] | 0.0403 | 0.0574 | 0.0504 |  | 
AACACGGUGAUGGUAGCCGGACGCUAGGUACGAGGACCGGUACGGCCGCCACUCGAAGUCCUACGACAUGAGGAUCACCCAUGUA [Same State Trp A GF14] | 0.0462 | 0.0892 | 0.0817 | 0.0477 | 0.0643
AACAUGAGGAUCACCCAUGUACAUUUCGAUCGAGGACCGGUACGGCCGCCACUCGAAAACAUGAGGAUCACCCAUGUUCAACAGG [Tryp A SS t4] | 0.065 | 0.336 | 0.39 |  | 
AACGAUUAAUCGGCCGCCACUCACAUGAGGAUCACCCAUGUUGUUCUUCCAGGUGGUUCUGUUCCGAGGACCGGGAUUCCGUCCU [theeternabot_exclusion_MS2_Trp_B_42] | 0.0418 | 0.0706 | 0.0707 |  | 
AACGUAUACAGAAGGAGCGUGAAUUAUAUUACUCAUUGUUAUACAUGAGGAUCACCCAUGUCACAGGUAGGUCGCUGUAUUCGUA [JR_ExcArginiB_Sub018] | 0.0769 | 0.126 | 0.162 | 0.11 | 0.131
AAGGCUACGACCGAUACCAGUAGACGGCAUUCGUAGGAGAACAUGAGGAUCACCCAUGUCUACCCUUGGCAGCGGAAAAUACACU [theeternabot_exclusion_MS2_Theo_B_16] | 0.0111 | 0.0174 |  | 0.0123 | 
AAGGGACAUGAGGAUCACCCAUGUACCGAAGGAGCGGCAGAGAUGCCAGGUAGGUCGCGGUACUUGCCGGGUCAUUCAUGCUAAA [Isxeon] | 0.00948 | 0.0143 | 0.0116 | 0.0135 | 0.012
AAGGGUGGGUCUCUAAUCCGUUUGACGGAUACCAGCGAGAGAUAUCGCCCUUGGCAGCCGACGACAUGAGGAUCACCCAUGUAAA [#05 Exclusion-TheophyllineA] | 0.0168 | 0.0225 | 0.0348 | 0.0158 | 0.0187
